Data published in publication PMC4721541 (Bioscience Reports, 2015).

Molecular target: the molecule itself
Assay: SEC-MALS; multi-angle laser light scattering after Superdex 200 10/30 in buffer A (150 mM NaCl, 50 mM Tris/HCl, pH 7.4); DAWN EOS photometer, Optilab rEX refractor

| Protein | stoichiometry N |
| --- | --- |
| Erv1 W183F (enzyme, S. cerevisiae, UniProt P27882 1-189, looked up, Erv1, Saccharomyces cerevisiae, 189 amino acids, full length, with W183F; Made by site-directed mutagenesis on the construct of m1; FAD content 71% as purified; source: E. coli Rosetta-gami 2, purified (Ni2+ resin, gel filtration)) MKAIDKMTDNPPQEGLSGRKIIYDEDGKPCRSCNTLLDFQYVTGKISNGLKNLSSNGKLAGTGALTGEASELMPGSRTYRKVDPPDVEQLGRSSWTLLHSVAASYPAQPTDQQKGEMKQFLNIFSHIYPCNWCAKDFEKYIRENAPQVESREELGRWMCEAHNKVNKKLRKPKFDCNFWEKRFKDGWDE | 2 |

Molecular target: the molecule itself
Assay: SEC; gel filtration on Superdex 200 10/30, 4°C, BAE (150 mM NaCl, 50 mM Tris/HCl, 1 mM EDTA, pH 7.4); oligomer state by elution position against the WT

| Protein | stoichiometry N |
| --- | --- |
| Erv1 (essential for respiration and viability 1), wild type (enzyme, S. cerevisiae, UniProt P27882 1-189, looked up, Erv1, Saccharomyces cerevisiae, FAD-dependent thiol oxidase, 189 amino acids, full length; Construct in pET24a(+) (NdeI/XhoI); also called WT Erv1; WT; source: E. coli Rosetta-gami 2, purified (Ni2+ resin, gel filtration)) MKAIDKMTDNPPQEGLSGRKIIYDEDGKPCRSCNTLLDFQYVTGKISNGLKNLSSNGKLAGTGALTGEASELMPGSRTYRKVDPPDVEQLGRSSWTLLHSVAASYPAQPTDQQKGEMKQFLNIFSHIYPCNWCAKDFEKYIRENAPQVESREELGRWMCEAHNKVNKKLRKPKFDCNFWEKRWKDGWDE | 4 |
| Erv1 W95F (enzyme, S. cerevisiae, UniProt P27882 1-189, looked up, Erv1, Saccharomyces cerevisiae, 189 amino acids, full length, with W95F; Made by site-directed mutagenesis on the construct of m1; source: E. coli Rosetta-gami 2, purified (Ni2+ resin, gel filtration)) MKAIDKMTDNPPQEGLSGRKIIYDEDGKPCRSCNTLLDFQYVTGKISNGLKNLSSNGKLAGTGALTGEASELMPGSRTYRKVDPPDVEQLGRSSFTLLHSVAASYPAQPTDQQKGEMKQFLNIFSHIYPCNWCAKDFEKYIRENAPQVESREELGRWMCEAHNKVNKKLRKPKFDCNFWEKRWKDGWDE | 4 |
| Erv1 W132F (enzyme, S. cerevisiae, UniProt P27882 1-189, looked up, Erv1, Saccharomyces cerevisiae, 189 amino acids, full length, with W132F; Made by site-directed mutagenesis on the construct of m1; source: E. coli Rosetta-gami 2, purified (Ni2+ resin, gel filtration)) MKAIDKMTDNPPQEGLSGRKIIYDEDGKPCRSCNTLLDFQYVTGKISNGLKNLSSNGKLAGTGALTGEASELMPGSRTYRKVDPPDVEQLGRSSWTLLHSVAASYPAQPTDQQKGEMKQFLNIFSHIYPCNFCAKDFEKYIRENAPQVESREELGRWMCEAHNKVNKKLRKPKFDCNFWEKRWKDGWDE | 4 |
| Erv1 W157F (enzyme, S. cerevisiae, UniProt P27882 1-189, looked up, Erv1, Saccharomyces cerevisiae, 189 amino acids, full length, with W157F; Made by site-directed mutagenesis on the construct of m1; source: E. coli Rosetta-gami 2, purified (Ni2+ resin, gel filtration)) MKAIDKMTDNPPQEGLSGRKIIYDEDGKPCRSCNTLLDFQYVTGKISNGLKNLSSNGKLAGTGALTGEASELMPGSRTYRKVDPPDVEQLGRSSWTLLHSVAASYPAQPTDQQKGEMKQFLNIFSHIYPCNWCAKDFEKYIRENAPQVESREELGRFMCEAHNKVNKKLRKPKFDCNFWEKRWKDGWDE | 4 |
| Erv1 W179F (enzyme, S. cerevisiae, UniProt P27882 1-189, looked up, Erv1, Saccharomyces cerevisiae, 189 amino acids, full length, with W179F; Made by site-directed mutagenesis on the construct of m1; source: E. coli Rosetta-gami 2, purified (Ni2+ resin, gel filtration)) MKAIDKMTDNPPQEGLSGRKIIYDEDGKPCRSCNTLLDFQYVTGKISNGLKNLSSNGKLAGTGALTGEASELMPGSRTYRKVDPPDVEQLGRSSWTLLHSVAASYPAQPTDQQKGEMKQFLNIFSHIYPCNWCAKDFEKYIRENAPQVESREELGRWMCEAHNKVNKKLRKPKFDCNFFEKRWKDGWDE | 4 |
| Erv1 W187F (enzyme, S. cerevisiae, UniProt P27882 1-189, looked up, Erv1, Saccharomyces cerevisiae, 189 amino acids, full length, with W187F; Made by site-directed mutagenesis on the construct of m1; source: E. coli Rosetta-gami 2, purified (Ni2+ resin, gel filtration)) MKAIDKMTDNPPQEGLSGRKIIYDEDGKPCRSCNTLLDFQYVTGKISNGLKNLSSNGKLAGTGALTGEASELMPGSRTYRKVDPPDVEQLGRSSWTLLHSVAASYPAQPTDQQKGEMKQFLNIFSHIYPCNWCAKDFEKYIRENAPQVESREELGRWMCEAHNKVNKKLRKPKFDCNFWEKRWKDGFDE | 4 |
